The record followed here is the DeepSol protein solubility set.

The series can be described thus: soluble on expression in E. coli; label from the status in PepcDB or PDB records.
Turning to “MSLKILIPTAKEMNTDLPSIEAIPLKPESQTVLDALALYSASQLESFYKVSAEKAAEEFQNIQALKRQTAQHYPALKLFDGLMYRNIKRDKLTEAEQDYLENHVFITSALYGVVPALSPMAPHRLDFLMKLKVAGKTLKSHWKAVYDEALKKEEVIFSLLSSEFETVFSKEIRAKMVTFKFMEDRGGQLKIHSTISKKARGAFLTALIENQVQTVGEARRLNFAGFVYREDLSQPQGLVFVKEVEGHHHHHH”, the “soluble on expression in E. coli” value is reported as “soluble”.
With “MSVVEEATDDALYPIAVLIDELRNEDVTLRLNSIRKLSTIALALGVERTRNELIQFLTDTIYDEDEVLLVLAEQLGNFTPLVGGPDHVHCLLLPLENLATVEETVVRDKAVESLRKIADKHSSASLEEHFVPMLRRLATGDWFTSRTSACGLFSVVYPRVSPAIKSELKSMFRTLCRDDTPMVRRAAAAKLGEFAKVFEKTAVIEGLHSSLTDLHVDEQDSVRLLTVESAIAFGTLLDKANKKKLIEPILIELFDDKSWRVRYMVAEKLIEIQNVLGEDMDTTHLVNMYTNLLKDPEGEVRCAATQRLQEFALNLPEDKRQNIICNSLLNVAKELVTDGNQLVKSELAGVIMGLAPLIGKEQTVSELLPIYMQLLNDQTPEVRLNIISSLDKVNEVIGAAQLSTSLLPAIVGLAEDGKWRVRLAIVQFMPLLASQLGQEFFDEKLLPLCLNWLTDHVFSIREASTLIMKELTQKFGGQWASTNIVPKMQKLQKDTNYLQRMTCLFCLNTLSEAMTQEQILKEIMPIVKDLVEDDVPNVRFNAAKSLKRIGKNLTPSTLTSEVKPLLEKLGKDSDFDVRYFSEEAKNSLGL” the entry was “not soluble”; with “PPPAPIPDLKVFEREGVQLNLSFIRPPENPALLLITITATNFSEGDVTHFICQAAVPKSLQLQLQAPSGNTVPARGGLPITQLFRILNPNKAPLRLKLRLTYDHFHQSVQEIFEVNNLPVESWQ”, “soluble”.
With “RQEQTETLAEERAETVANLEELNALILQRMRTGILVVDSRQAILLANQAALGLLRQDDVQGASLGRHSPMLMHCMKQWRLNPSLRPPTLKVVPDGPTVQPSFISLNREDDQHVLIFLEDISQIAQQAQQMKLAGLGRLTAGIAHEIRNPLGAISHAAQLLQESEELDAPDRRLTQIIQDQSKRMNLVIENVLQLSRRRQAEPQQLDLKEWLQRFVDEYPGRLRNDSQLHLQLGAGDIQTRMDPHQLNQVLSNLVQNGLRYSAQAHGRGQVWLSLARDPESDLPVLEVIDDGPGVPADKLNNLFEPFFTTESKGTGLGLYLSRELCESNQARIDYRNREEGGGCFRITFA” the entry was “not soluble”.
Regarding “GPGSMIAILFGFTLGTAVGACNRAHYSSYGSSVYIAPLPSNSHNSLAFMDIARYRAGLFTTHQSVCGRVVIELFDSISPVSTTNFRGLCQGKHGTSGTGHKLCYSGTRLLPNECFIRGGDVTFGSAAGGWSIYGRSFREMAKGSSSSSRSSDVKGKGLVYAVGANAQWGSEFLITVDGFTPGEDHILLGQVVEGYDVLQRLQQQSLLPHAKRFIHYRILKAGVLKEAETPNYGKGSAFLRF”, the “soluble on expression in E. coli” value is recorded as “not soluble”.
Next, “MSIATQEFDAIVIGAGGAGLRASFQLSQSGFKTAVVSKVFPTRSHTVAAQGGIAAALGNIEFDDGLPSDDWKWHMYDTVKGSDYIGDQDAIEYMCEHAPQSIIELEHMGMPFSRLKNGKIYQRAFGGMSRNYDPANQAERTCAAADRTGHALLHTLYQGNLAHKTDFYTEWFAVDLVKADDGSIAGVIALCIETGETVFLKAKITILATGGAGRIYESSTNAYINTGDGMGLALRAGLPLQDMEFWQFHPTGIAGAGVLVTEGCRGEGGVLRNKDGERFMERYAPNAKDLACRDVVSRASQQEIMEGRGDTFSGTSCVWLDLTHLGEDVINERLPTVRELGRTFAGIDPVEKPIPVVPTCHYQMGGIPTNKHGQVITQVDGKDKVIGGLYAVGECASVSVHGANRLGSNSLLDLVVFGRAAGMHAEQSLKEGMPMKEVSQENIEKATARITKWDTSEQRGCKEKISELRKELQRVMQQYFSVFRQESTMKEGLDKLFNIRERLDNAVLEDNSRIFNMMRIEALELDNLVLTAIATAKLALERKESRGAHSRVDYPERDDKNWMKHTLYFLEGDRTSLRDVNMSPTKVKAFQPAERKY”: “not soluble”; “MGSDKIHHHHHHMTFEQLLYAVELANHQTLQETADLLHISKSGLSQSISQLENELGVKLFKRTRYGSKLTAQGKELLPLIKQMLSQGVSLTKKAHNLGKSGQIETVRVAYANTMLKPFLNEYLAMYQDVPTKFNMEISQETVTQIIDGIRSHRINLGFIAINDSNKAEIHGLEFKPVHVGHLKLFLSPDNQLVKKQKINIEDLQKQRFALFNDPYNDRIFEHLQYLCGPLKTVIKTDDGWAMYTTIKKANAVALVRDWQTSYSSYEPLQKLPSLDISNLIDDRFYLGWLTNPKYTTSRYTHRYTQEFIKHVDAQIKEC”: “not soluble”; “MGSDKIHHHHHHMWFRNLLVYRLTQDLQLDADSLEKALGEKSARPCASQELTTYGFTAPFGKGPDAPLVHVSQDFFLISARKEERILPGSVVRDALKEKVDEIEAQQMRKVYKKERDQLKDEIVQTLLPRAFIRRSSTFAAIAPSLGLILVDSASAKKAEDLLSTLREALGSLPVRPLSVKVAPTATLTDWVKTQEAAGDFHVLDECELRDTHEDGGVVRCKRQDLTSEEIQLHLTAGKLVTQLSLAWSDKLSFVLDDKLAVKRLRFEDLLQEQAEKDGGEDALGQLDASFTLMMLTFAEFLPALFEALGGEEIPQGV”: “not soluble”.
Next, “GTERPYGQREVDHYAEKQAIAERAAQEVREGQVVCFDAGSTTMEVARAIPDTDYVAATNMPDLATELAEGDVDTKLTGGSLRPRTRALVGPTAERAVERMNFDLLFLGTNALDSAAGLSTPNEDEAAIKELMVERARRVVLVADASKFGDR”: “not soluble”; “MAKNPKDGESRTFLISVAAELAGMHAQTLRTYDRLGLVSPRRTSGGGRRYSLHDVELLRQVQHLSQDEGVNLAGIKRIIELTSQVEALQSRLQEMAEELAVLRANQRREVAVVPKSTALVVWKPRR”: “soluble”.
“QVQLVQSGPELKKPGETVKISCKASGYMFTNYGMNWVKQAPGKALKWMGWINPYTGESTFADDFKGRFAFFLETSATTAYLQINNLKNEDTATYFCARGTTIVWAMDYWGQGTSVTVSSASTKGPSVFPLAPSSKSTSGGTAALGCLVKDYFPEPVTVSWNSGALTSGVHTFPAVLQSSGLYSLSSVVTVPSSSLGTQTYICNVNHKPSNTKVDKKVEPLSCDKTHT”: the “soluble on expression in E. coli” value is “soluble”.
Next, “MRGSHHHHHHGKQLTILGSTGSIGCSTLDVVRHNPEHFRVVALVAGKNVTRMVEQCLEFSPRYAVMDDEASAKLLKTMLQQQGSRTEVLSGQQAACDMAALEDVDQVMAAIVGAAGLLPTLAAIRAGKTILLANKESLVTCGRLFMDAVKQSKAQLLPVDSEHNAIFQSLPQPIQHNLGYADLEQNGVVSILLTGSGGPFRETPLRDLATMTPDQACRHPNWSMGRKISVDSATMMNKGLEYIEARWLFNASASQMEVLIHPQSVIHSMVRYQDGSVLAQLGEPDMRTPIAHTMAWPNRVNSGVKPLDFCKLSALTFAAPDYDRYPCLKLAMEAFEQGQAATTALNAANEITVAAFLAQQIRFTDIAALNLSVLEKMDMREPQCVDDVLSVDANAREVARKEVMRLASSACDLGTPGRPAAKLN”: “soluble”.
“MGSDKIHHHHHHMNIKIAKNAGFCFGVKRAMKMAWDEVEKNDSGIYALGPLIHNKQAVAKYEEKGLKTVNEIDTIPNHENMIIRSHGVPENIYKEAKDKKLKIVDTTCPFVKKIHTVVSEYHNKGYEIIVIGDMKHPEVIGINGWCENSAIIIKTLEQMENMEFDNSKRYCLVAQTTINPELYISIVNKLSDKLEEIVFNDTICSATKTRQESAKELAKEVDCMIVIGGKHSSNTQKLVKVCEDLVPTFAIETKDELDVNTLKKYKNLGITAGASTPNWIIEEVVTFLENL”: the “soluble on expression in E. coli” value was “not soluble”.
On to “MTEADDPKKKIRARIERDVYSVLLSFQEGATPNQVERRMDDTLGYTYVGKYVQAGVRDMAQLLREHKDVRQNLSGVFSVVANEDNQDLINLISKQKKKKKGGKGAKPIRAATSMGFHNKSGFGYAAHLRSPKPSFMYPASSARANPAKPQATGYRNTVRHPPVRPSTATGHSSFANRSAYSHHTTRSTTVGPVKIAPSATAQRPLLRQPVTVVQRLSSTVAVPVLQPGIDSKCMPSIVDFSNNVKRMMLLEYPADVHLSELTEIYDKHFDVSIDPLQLFSKSWMMFVKTSFKEWLQLGTDGRVEVKEPWFTNFGAALKKSMPPAPEKKKPTTLHEPTSSVASSSLPISQGFRYQIPVVRPIVSVAESMKGLTVSARSVMGTPKDLPGVSNPIKNTARGSNKPRNDLASSKASKDLVVPVMKTTCIKSLEDTSTSSSNPSTLQLSTASTSATDQKLPKMSFGRQIEKGSSIPGRHISLALTEIKNQKVIAASIVGKSAKTSTKVPSTTRSVVLPPMSKGPGLARSRNFSPQQSTTSSIDNECLEAINAALPSDKDSW”, for which the “soluble on expression in E. coli” value is recorded as “soluble”.
Next, “ADPLAATTVADLPVYNGEDVWQRVAQRCRLVDGQGVNERIARQRDWLLNNRGFLTGASKRATPYLHFIVERLDERNMPLELALLPMIESSYNPLANSPAAAAGLWQFIPSTGRQFNLNQSATYDARRDVVASSKAAMDYLTRLHDQFNNDWLLALAAYNAGEGTVARAIDANRRRGMPVDYWHLNLPRETQDYVPRLLALSLVVRNPGAYGVQLTPVANMPYFDVVELNHTVDLTQLAATTGVDEAQLLRLNPAFLRKKTPDGPGRLLIPKTHTQVLTAGIERITGESPTTAVIPASPGKRVIEREPSSQVAERAPTPEPLQAAGREQTAGLMQVLEREPAPESVQPVRREPQPKVVQVARQEPLPGPAQPVQAAEQVTVSDPIQPARQASSQATNERSLLDRRIQKRLYIDDRSSPRKRDEIAYRDEPRELPNGPRVVVYASDPRQ”: “not soluble”; “MGSDKIHHHHHHMFYFTVNNPQDPLSTEIVETNRRDLAFWHRLRPKDDDDLATAINKICVRTGLSRKLIAACLFSICFLPYLPNFHKLVEKLGHLDMARINAITKAGEKVPSEKRELFDAYLVDYLTPRAEAQCLPQASSISAMMRKFIAQHCPDDKASSATNDGSIRYRRNNKGGISITVDATASEVTEIKAALEQMSKDKDCTPGTSLLHIIRGLPTKVVLNTYGTKDSPEYLEGGTWLSKEQSEFWKTRTTSSRDMDAAHFSYTTAYAPTREMRVYIKGLRTTCSVPGCSVAVENCQLDHIIPWGEGGPTTPWNIHPLCVFHHIQKTEGRLQCYPLPDGTVLFLVDGIPVFSIPDGPLSKSNKTWGTKFGKYMERRIAA”: “not soluble”.
Next, “SLHCIPLWRCNRHVESIDKRHCSLVYVPEEIYRYARSLEELLLDANQLRELPEQFFQLVKLRKLGLSDNEIQRLPPEIANFMQLVELDVSRNEIPEIPESISFCKALQVADFSGNPLTRLPESFPELQNLTCLSVNDISLQSLPENIGNLYNLASLELRENLLTYLPDSLTQLRRLEELDLGNNEIYNLPESIGALLHLKDLWLDGNQLSELPQEIGNLKNLLCLDVSENRLERLPEEISGLTSLTDLVISQNLLETIPDGIGKLKKLSILKVDQNRLTQLPEAVGECESLTELVLTENQLMTLPKSIGKLKKLSNLNADRNKLVSLPKEIGGCCSLTVFCVRDNRLTRIPAEVSQATELHVLDVAGNRLLHLPLSLTALKLKALWLSDNQSQPMLTFQTDTDYTTGEKILTCVLLPQLPSEPTCQENLPRCGALENLVNDVSDEAWNERAVNRVSAIRFVEDEKDEEDNETRTLLRRATPHPGELKHMKKTVENLRNDMNAAKGLDSNKNEVNHAIDRVTTS”: “not soluble”; “SVFYFTSSSVNSSAYTIYMGKDKYENEDLIKHGWPEDIWFHVDKLSSAHVYLRLHKGENIEDIPKEVLMDCAHLVKANSIQGCKMNNVNVVYTPWSNLKKTADMDVGQIGFHRQKDVKIVTVEKKVNEILNRLEKTKVERFPDLAAEKECRDREERNEKKAQIQEMKKREKEEMKKKREMDELRSYSSLMKVENMSSNQDGNDSDEFM”: “soluble”.
